# B1: SA MTase (salicylic acid methyltransferase) (Clarkia breweri) (protein)
# chain: MDVRQVLHMKGGAGENSYAMNSFIQRQVISITKPITEAAITALYSGDTVTTRLAIADLGCSSGPNALFAVTELIKTVEELRKKMGRENSPEYQIFLNDLPGNDFNAIFRSLPIENDVDGVCFINGVPGSFYGRLFPRNTLHFIHSSYSLMWLSQVPIGIESNKGNIYMANTCPQSVLNAYYKQFQEDHALFLRCRAQEVVPGGRMVLTILGRRSEDRASTECCLIWQLLAMALNQMVSEGLIEEEKMDKFNIPQYTPSPTEVEAEILKEGSFLIDHIEASEIYWSSCTKDGDGGGSVEEEGYNVARCMRAVAEPLLLDHFGEAIIEDVFHRYKLLIIERMSKEKTKFINVIVSLIRKSD
# Substrate: O=C(O)c1ccccc1O
# Assay: Mtn/XOD/HRP-coupled Amplex Red fluorescence, initial rates, non-linear regression
# Assay type: biochemical, Clarkia breweri
# Conditions: 0.5 mM SAM, 5 mM MgCl2, 1 mM KCl, pH 7.5, 30°C, coupling enzymes possibly rate-limiting
protein,measurement,value
B1,Km,6.8 (±1.0) μM
same,kcat,0.98 (±0.3) min^-1
